Experimental data: patent US20140154255A1 (AbbVie / Abbott, published 2014)

Legend:
[1] = target: T1, VEGF (R&D systems, Minneapolis, Minn.) (UniProt P15692-4 27-191, limits assumed); assay: BIAcore SPR
Protocol: (§1) RL was kept low to minimize avidity due to the dimeric nature of VEGF. No capture of the antibody was made on the reference surface to serve as a negative control. Subsequently, VEGF was injected to all flow cells at a flow rate of 50 μL/min for two minutes to monitor association followed by a 25-minute flow of HBS-P running buffer (10 mM HEPES, 150 mM sodium chloride, 0.005% P-20, pH 7.4) to monitor the dissociation phase. At each cycle, VEGF, in 6 different concentrations of VEGF ranging between 0 nM and 512 nM and at four-fold increments, was injected over the surface. […] Binding data were fit to the 1:1 Langmuir model to extract binding constants from the BIAevaluate software. Double referencing was applied in each analysis to eliminate background responses from the reference surface and buffer only control. All the binding kinetics data were analyzed at least three separate determinations.

[2] = target: T2, human VEGF-A residues 27-191 of Accession #AAV38412 (human, UniProt P15692 27-191); assay: BIAcore SPR
T2 construct: range 27-191
T2 sequence (P15692 other isoform, or with tags, fused parts or gaps limits assumed): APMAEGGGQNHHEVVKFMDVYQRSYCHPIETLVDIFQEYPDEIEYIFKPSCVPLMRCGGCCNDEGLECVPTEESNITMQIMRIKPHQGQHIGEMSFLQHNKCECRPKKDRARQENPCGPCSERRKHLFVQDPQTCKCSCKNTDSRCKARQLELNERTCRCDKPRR
Protocol: (§2) The binding kinetics and affinity of the antibodies for VEGF (human VEGF-A residues 27-191 of Accession #AAV38412) was determined by using a BIAcore T200 surface plasmon resonance system (BIAcore, GE Healthcare, Piscataway, N.J.). Coupling running buffer was HBS-EP+ running buffer (10 mM HEPES, 150 mM sodium chloride, 3 mM EDTA 0.05% P-20, pH 7.4); assay running buffer was HBS-EP+ with 300 mM sodium chloride and 0.1 mg/mL BSA (Sigma A7906). Polyclonal goat anti-human Fc (Thermo Scientific prod#31125) was first immobilized to the biosensor surface in 10 mM sodium acetate, pH 4.5 using standard BIAcore amine coupling reagents (N-ethyl-N′-dimethylamino-propylcarbodiimide, EDC; N-hydroxysuccinimide, NHS; and ethanolamine HCl, pH 8.5). For binding kinetics assay a series of cycles were performed, each cycle consisted of 1) mAb capture, 2) Ag or buffer injection, 3) dissociation phase and 4) regeneration. Briefly, anti-VEGF antibodies were captured on parallel surfaces at a low flow rate of 10 μL/min. Capture levels were kept low to minimize avidity due to the dimeric nature of VEGF. No capture of the antibody was made on the reference surface to serve for primary referencing and as a negative control. Subsequently, VEGF or buffer only was injected to all flow cells at a flow rate of 80 μL/min for three minutes to monitor association followed by a 20-minute flow of assay rinning buffer at a flow rate of 80 μL/min to monitor dissociation. […] At the end of each cycle the surface was regenerated with 10 mM glycine, pH 1.5 at a flow rate of 60 μL/min in pulses of 60 and 10 sec. Binding data were fit to the 1:1 Langmuir model with mass transport term included using Biacore T200 Evaluation Software to determine the binding constants.

[3] = target: T1, VEGF (R&D systems, Minneapolis, Minn.); assay: BIAcore SPR, WT/mutant
Protocol: as §1

[4] = target: T1, VEGF (R&D systems, Minneapolis, Minn.); assay: BIAcore SPR, mutant/WT
Protocol: as §1

[5] = target: T2, human VEGF-A residues 27-191 of …; assay: BIAcore SPR, KD WT/KD mutant
Protocol: as §2

[6] = target: T1, VEGF (R&D systems, Minneapolis, Minn.); assay: BIAcore SPR, improvement over WT
Protocol: as §1

[7] = target: T3, unlabeled human VEGF (ELISA coat) (human, UniProt P15692-4 27-191, limits assumed); assay: ELISA 1 hr, EC50 WT/EC50 mutant
T3 sequence (P15692 other isoform, or with tags, fused parts or gaps limits assumed): as above
Protocol: (§3) To detect identified variants binding to antigen, ELISA plates (Nunc-Immuno MaxiSorp plates, Nalge Nunc, Rochester, N.Y.) were coated overnight at 4° C. with unlabeled human VEGF at 1 μg/mL in 0.2 M sodium carbonate-bicarbonate buffer (pH 9.4, Pierce, Rockford, Ill.). The plates were then blocked with SuperBlock Blocking Buffer (Pierce, Rockford, Ill.) for 30 min and washed with Washing Buffer (PBS containing 0.1% Tween 20). All the washing steps were performed for three times. […] The plates were washed and 100 μL of goat anti-human kappa HRP-conjugated antibody (Southern Biotech, Birmingham, Ala.) diluted at 1:1000 in ELISA buffer was added to each well. After 30 minutes of incubation, plates were washed and bound antibodies were detected by addition of TMB 1 Component HRP Microwell substrate (BioFx #TMBW-1000-01). The reaction was terminated by addition of 100 μL/well of 650 nM Stop Reagent for TMB Microwell substrate and the absorbance was measured at 650 nm using a VERSAmax microplate reader (Molecular Devices, Sunnyvale, Calif.). Data were fitted using nonlinear regression with the software […]

[8] = target: T3, unlabeled human VEGF (ELISA coat); assay: ELISA overnight, EC50 WT/EC50 mutant
Protocol: as §3

[9] = target: T2, human VEGF-A residues 27-191 of …; assay: SS DLL4-VEGF DVD-Ig format; BIAcore by paragraph 262
Protocol: as §2

T1 sequence (P15692 other isoform, or with tags, fused parts or gaps limits assumed): as above

Binder	Kd [1] [nM]	koff [1] [s⁻¹]	kon [1] [M⁻¹ s⁻¹]	Kd [2] [nM]	koff [2] [s⁻¹]	kon [2] [M⁻¹ s⁻¹]	Δkoff [3] [fold]	Δkon [4] [fold]	affinity improvement [5] [fold]	ΔKD [6] [fold]	ELISA 1hr binding [7] [fold]	ELISA o/n binding [8] [fold]	Affinity relative to WT [9] [fold]
96 (antibody, human IgG1, V domains shown) VH: EVQLVESGGGLVQPGGSLRLSCAASGYTFTFYGMNWVRQAPGKGLEWVGWINTYTGEPTYAADFKRRFTFSLDTSKSTAYLQMNSLRAEDTAVYYCAKYPPYYGGSHWYFDVWGQGTLVTVSS VL: DIQMTQSPSSLSASVGDRVTITCSASQDISNYLNWYQQKPGKAPKVLIYFTSSLHSGVPSRFSGSGSGTDFTLTISSLQPEDFATYYCQQYSTVPWTFGQGTKVEIKR	1.75	0.000379	225000				0.9	1.3		1.1			
E 56 Q (bispecific antibody, also called SS DLL4-VEGF DVD-Ig variant E56Q) VH: EVQLVESGGGLVQPGGSLRLSCAASGFTFSNFPMAWVRQAPGKGLEWVATISSSDGTTYYRDSVKGRFTISRDNAKNSLYLQMNSLRAEDTAVYYCARGYYNSPFAYWGQGTLVTVSSASTKGPEVQLVESGGGLVQPGGSLRLSCAASGYTFTNYGMNWVRQAPGKGLEWVGWINTYTGQPTYAADFKRRFTFSLDTSKSTAYLQMNSLRAEDTAVYYCAKYPHYYGSSHWYFDVWGQGTLVTVSS VL: DIQMTQSPSSLSASVGDRVTITCRASEDIYSNLAWYQQKPGKAPKLLIYDTNNLADGVPSRFSGSGSGTDFTLTISSLQPEDFATYYCQQYNNYPPTFGQGTKLEIKRTVAAPDIQMTQSPSSLSASVGDRVTITCSASQDISNYLNWYQQKPGKAPKVLIYFTSSLHSGVPSRFSGSGSGTDFTLTISSLQPEDFATYYCQQYSTVPWTFGQGTKVEIK													0.7
E 56 R (bispecific antibody, also called SS DLL4-VEGF DVD-Ig variant E56R) VH: EVQLVESGGGLVQPGGSLRLSCAASGFTFSNFPMAWVRQAPGKGLEWVATISSSDGTTYYRDSVKGRFTISRDNAKNSLYLQMNSLRAEDTAVYYCARGYYNSPFAYWGQGTLVTVSSASTKGPEVQLVESGGGLVQPGGSLRLSCAASGYTFTNYGMNWVRQAPGKGLEWVGWINTYTGRPTYAADFKRRFTFSLDTSKSTAYLQMNSLRAEDTAVYYCAKYPHYYGSSHWYFDVWGQGTLVTVSS VL: DIQMTQSPSSLSASVGDRVTITCRASEDIYSNLAWYQQKPGKAPKLLIYDTNNLADGVPSRFSGSGSGTDFTLTISSLQPEDFATYYCQQYNNYPPTFGQGTKLEIKRTVAAPDIQMTQSPSSLSASVGDRVTITCSASQDISNYLNWYQQKPGKAPKVLIYFTSSLHSGVPSRFSGSGSGTDFTLTISSLQPEDFATYYCQQYSTVPWTFGQGTKVEIK													0.9

Continued, values first:

Kd [1] [nM]	koff [1] [s⁻¹]	kon [1] [M⁻¹ s⁻¹]	Kd [2] [nM]	koff [2] [s⁻¹]	kon [2] [M⁻¹ s⁻¹]	Δkoff [3] [fold]	Δkon [4] [fold]	affinity improvement [5] [fold]	ΔKD [6] [fold]	ELISA 1hr binding [7] [fold]	ELISA o/n binding [8] [fold]	Affinity relative to WT [9] [fold]	Binder
0.575	0.000121	211000	0.091	2.48e-05	272000	2.9	1.2	4.7	3.4	0.7	0.3		91 (antibody, human IgG1, V domains shown) VH: EVQLVESGGGLVQPGGSLRLSCAASGYTFTFYGMNWVRQAPGKGLEWVGWINTYTGEPTYAADFKRRFTFSLDTSKSTAYLQMNSLRAEDTAVYYCAKYPHYYGSSHWYFDVWGQGTLVTVSS VL: DIQMTQSPSSLSASVGDRVTITCSASQDISNYLNWYQQKPGKAPKVLIYFTSSLHSGVPSRFSGSGSGTDFTLTISSLQPEDFATYYCQQYSTVPWTFGQGTKVEIKR
0.282	0.000273	968000				1.3	5.4		7				86 (seventh row of Table 7) (antibody, human IgG1, V domains shown, defined here by its substitutions; copies: 2 + 2) VH: EVQLVESGGGLVQPGGSLRLSCAASGYTFTFYGMNWVRQAPGKGLEWVGWINTYTGEPTYAADFKRRFTFSLDTSKSTAYLQMNSLRAEDTAVYYCAKYPHYDGGSHWYFDVWGQGTLVTVSS VL: DIQMTQSPSSLSASVGDRVTITCSASQDISNYLNWYQQKPGKAPKVLIYFTSSLHSGVPSRFSGSGSGTDFTLTISSLQPEDFATYYCQQYSTVPWTFGQGTKVEIK
0.708	0.000256	367000	0.522	0.00021	401000	1.4	2	0.8	2.8	2.7	1		92 (antibody, human IgG1, V domains shown) VH: EVQLVESGGGLVQPGGSLRLSCAASGYTFTNYGMNWVRQAPGKGLEWVGWINTYTGEPTYAADFKRRFTFSLDTSKSTAYLQMNSLRAEDTAVYYCAKYPPYYGSSHWYFDVWGQGTLVTVSS VL: DIQMTQSPSSLSASVGDRVTITCSASQDISNYLNWYQQKPGKAPKVLIYFTSSLHSGVPSRFSGSGSGTDFTLTISSLQPEDFATYYCQQYSTVPWTFGQGTKVEIKR
1.54	0.000396	262000	1.3	0.000351	270000	0.9	1.5	0.4	1.3	4.5	3		95 (antibody, human IgG1, V domains shown) VH: EVQLVESGGGLVQPGGSLRLSCAASGYTFTNYGMNWVRQAPGKGLEWVGWINTYTGEPTYAADFKRRFTFSLDTSKSTAYLQMNSLRAEDTAVYYCAKYPDYYGSSHWYFDVWGQGTLVTVSS VL: DIQMTQSPSSLSASVGDRVTITCSASQDISNYLNWYQQKPGKAPKVLIYFTSSLHSGVPSRFSGSGSGTDFTLTISSLQPEDFATYYCQQYSTVPWTFGQGTKVEIKR
0.761	0.000225	292000	1.59	0.000358	225000	1.6	1.6	0.3	2.6	4.3	3.6		93 (antibody, human IgG1, V domains shown) VH: EVQLVESGGGLVQPGGSLRLSCAASGYTFTNYGMNWVRQAPGKGLEWVGWINTYTGEPTYAADFKRRFTFSLDTSKSTAYLQMNSLRAEDTAVYYCAKYPEYYGSSHWYFDVWGQGTLVTVSS VL: DIQMTQSPSSLSASVGDRVTITCSASQDISNYLNWYQQKPGKAPKVLIYFTSSLHSGVPSRFSGSGSGTDFTLTISSLQPEDFATYYCQQYSTVPWTFGQGTKVEIKR
